{"source": "paper PMC5620733", "about": "“Aptamer-Based Single-Step Assay by the Fluorescence Enhancement on Electroless Plated Nano Au Substrate”", "target": "thrombin (UniProt P00734;P00734 328-363;364-622)", "experiment": "fluorescence decrease on chitosan-coated Au nanostructure (aptamer release); 10 ug/mL thrombin, 15 min; smaller signal change than 15mer, ascribed to retention on chitosan; 20 mM Tris-HCl pH 7.4, 20 mM MgCl2; chitosan-coated (1000 Da) Au nanostructure blocked with 1% BSA; 15 min; temperature not stated", "data": [{"binder": "CACTGTGGTTGGTGTGGTTGG (ssDNA)", "note": "[TBA 21mer (5'-extended)]", "values": [{"measurement": "binding result", "result": "binds"}]}]}
